Laboratory results from patent US20230322927A1 (Regeneron, published 2023).

Tests used:
human EGFR on cells [1] = target: T1, human EGFR on cells (human, UniProt P00533 25-1210); test: flow cytometry titration on 22RV1 cells (EGFR-expressing)
T1 construct: whole, on cells; One molecule is used for both endogenous EGFR on human tumour cell lines and EGFR overexpressed on Ba/F3 cells; also called hEGFR; EGFR+ cells (PEO1, A375, 22RV1, CAPAN2, SW1990, H292, CASKI)
Method: (§1) Flow cytometric analysis was utilized to determine binding of anti-EGFR X anti-CD28 bispecific antibodies to several cancer cell lines (A375, 22RV1, PEO1, CAPAN2, SWi1990, H292), Human and Cynomolgus T cells and Jurkat cells followed by detection with a labeled anti-human secondary IgG antibody. […] After incubation, the cells were washed twice with cold PBS containing 1% filtered FBS and a Fluorophore-conjugated anti-human secondary antibody was added to the cells and incubated for an additional 30 minutes. Live/dead dye was added to Human and Cynomolgus T cells incubations. Wells containing no antibody or secondary only were used as a control.

human EGFR on cells [2] = target: T1, human EGFR on cells; test: cell-based or functional assay
human EGFR on cells [3] = target: T1, human EGFR on cells; test: flow cytometry titration on CASKI cells; CASKI cells
human EGFR on cells [4] = target: T1, human EGFR on cells; test: flow cytometry titration on SW1990 cells (EGFR-expressing)
Method: as §1

human EGFR on cells [5] = target: T1, human EGFR on cells; test: flow cytometry titration on A375 cells (EGFR-expressing)
Method: as §1

human EGFR on cells [6] = target: T1, human EGFR on cells; test: flow cytometry titration on PEO1 cells
Method: (§2) After incubation, the cells were washed twice with cold PBS containing 1% filtered FBS and a Fluorophore-conjugated anti-human secondary antibody was added to the cells and incubated for an additional 30 minutes. Live/dead dye was added to Human and Cynomolgus T cells incubations. Wells containing no antibody or secondary only were used as a control.
(§3) After incubation with EGFR expressing cells, cells were washed, re-suspended in 200 μL cold PBS containing 1% filtered FBS and analyzed by flow cytometry on a BD FACS Canto II.

human EGFR on cells [7] = target: T1, human EGFR on cells; test: flow cytometry titration on PEO1 cells (EGFR-expressing)
Method: as §1

human EGFR on cells [8] = target: T1, human EGFR on cells; test: flow cytometry titration on H292 cells (EGFR-expressing)
Method: as §1

human EGFR on cells [9] = target: T1, human EGFR on cells; test: flow cytometry titration on CAPAN2 cells (EGFR-expressing)
Method: as §1

human EGFR on cells [10] = target: T1, human EGFR on cells; test: flow cytometry titration on 22RV1 cells
Method: as §2, §3

hCD28.mFc (REGN2012) = target: T2, hCD28.mFc (REGN2012) (human, UniProt P10747 19-152, limits assumed); test: SPR (Biacore T-200) at 25 C; hCD28.mFc captured on anti-mouse Fc, antibody injected
T2 construct: also called Human CD28-mFc; hCD28 with a C-terminal mouse Fc tag; not shown: C-terminal mouse Fc tag

[11] = target: T3, hEGFR(ECD).CPGG.MMH6 (REGN355) (human, UniProt P00533 25-647); test: SPR (Biacore 4000) at 25 C; antibody captured on anti-human Fc, hEGFR.mmH injected
T3 construct: Soluble extracellular domain with a myc-myc-hexahistidine tag; also called hEGFR.mmH; hEGFR.mmh
Method: Association was monitored for 5 minutes, and the dissociation of hEGFR.mmH in HBS-EP running buffer was monitored for 10 minutes. All of the binding kinetics experiments were performed at 25° C. Kinetic association (kₐ) and dissociation (kd) rate constants were determined by fitting the real-time sensorgrams to a 1:1 binding model using Scrubber 2.0c curve fitting software.

human CD28 on cells = human CD28 on cells (human, UniProt P10747 19-220); test: cell-based or functional assay
human EGFR on cells [12] = target: T1, human EGFR on cells; test: flow cytometry titration on A375 cells
Method: as §2, §3

- EC50 (human EGFR on cells [1]): 0.554 nM
- Inhibition [%] of BaF3/hEGFR proliferation in presence of 0.5 nM hEGF (human EGFR on cells [2]): 28.5%
- Inhibition [%] of BaF3/hEGFR proliferation in presence of 0.5 nM hTGFβ (human EGFR on cells [2]): -7.3%
- EC50 (human EGFR on cells [3]): 2.35 nM
- EC50 (human EGFR on cells [4]): 2.96 nM
- EC50 (human EGFR on cells [5]): 1.48 nM
- EC50 (human EGFR on cells [6]): 5.86 nM
- EC50 (human EGFR on cells [7]): 0.667 nM
- EC50 (human EGFR on cells [8]): 0.674 nM
- EC50 (human EGFR on cells [9]): 1.29 nM
- EC50 (human EGFR on cells [10]): 11.9 nM
- Kd (hCD28.mFc (REGN2012)): 10 nM
- koff (hCD28.mFc (REGN2012)): 0.00265 s⁻¹
- kon (hCD28.mFc (REGN2012)): 265000 M⁻¹ s⁻¹
- t½ (hCD28.mFc (REGN2012)): 4.4 min
- Kd [11]: 3.75 nM
- koff [11]: 0.000774 s⁻¹
- kon [11]: 206000 M⁻¹ s⁻¹
- t½ [11]: 14.9 min
- IL-2 Release MAX (pg/mL), human CD3+ T cells + NCI-H292 cells, with 20 nM IsoC-1 (human CD28 on cells): 13.2 pg/mL
- IL-2 Release MAX (pg/mL), human CD3+ T cells + NCI-H292 cells, with 20 nM cemiplimab (human CD28 on cells): 36.7 pg/mL
- Proliferation EC50 [M], human CD3+ T cells + NCI-H292 cells, with 20 nM IsoC-1 (human CD28 on cells): 2.29e-11 M
- Proliferation EC50 [M], human CD3+ T cells + NCI-H292 cells, with 20 nM cemiplimab (human CD28 on cells): 3.13e-11 M
- Proliferation MAX (CPM), human CD3+ T cells + NCI-H292 cells, with 20 nM IsoC-1 (human CD28 on cells): 1660 CPM
- Proliferation MAX (CPM), human CD3+ T cells + NCI-H292 cells, with 20 nM cemiplimab (human CD28 on cells): 2340 CPM
- EC50 (human EGFR on cells [12]): 0.874 nM
B1: REGN6323 (bispecific antibody, human IgG4 S228P, kappa)
heavy 1: QVQLQESGPGLVKPSETLSLTCTVSDDSIISYYWSWIRQPPGKGLEWIGYIYYSGRTNYNPSLKSRVTISVDTSKNQVSLKLNSVIAADTAVYYCARVSEDSYYHYGMDVWGQGTTVTVSSASTKGPSVFPLAPCSRSTSESTAALGCLVKDYFPEPVTVSWNSGALTSGVHTFPAVLQSSGLYSLSSVVTVPSSSLGTKTYTCNVDHKPSNTKVDKRVESKYGPPCPPCPAPPVAGPSVFLFPPKPKDTLMISRTPEVTCVVVDVSQEDPEVQFNWYVDGVEVHNAKTKPREEQFNSTYRVVSVLTVLHQDWLNGKEYKCKVSNKGLPSSIEKTISKAKGQPREPQVYTLPPSQEEMTKNQVSLTCLVKGFYPSDIAVEWESNGQPENNYKTTPPVLDSDGSFFLYSRLTVDKSRWQEGNVFSCSVMHEALHNHYTQKSLSLSLGK
heavy 2: QVQLQESGPGLVKPSETLSLTCTVSGGSISSYYWSWIRQPPGKGLEWIGYIYYSGITHYNPSLKSRVTISVDTSKIQFSLKLSSVTAADTAVYYCARWGVRRDYYYYGMDVWGQGTTVTVSSASTKGPSVFPLAPCSRSTSESTAALGCLVKDYFPEPVTVSWNSGALTSGVHTFPAVLQSSGLYSLSSVVTVPSSSLGTKTYTCNVDHKPSNTKVDKRVESKYGPPCPPCPAPPVAGPSVFLFPPKPKDTLMISRTPEVTCVVVDVSQEDPEVQFNWYVDGVEVHNAKTKPREEQFNSTYRVVSVLTVLHQDWLNGKEYKCKVSNKGLPSSIEKTISKAKGQPREPQVYTLPPSQEEMTKNQVSLTCLVKGFYPSDIAVEWESNGQPENNYKTTPPVLDSDGSFFLYSRLTVDKSRWQEGNVFSCSVMHEALHNRFTQKSLSLSPGK
light: not shown
notes: EGFR arm from mAb13006P2, CD28 arm from mAb14226; also called bsAb6323; EGFRxCD28
